# Measured values from patent publication US20070066800A1, “Apo2l(trail) receptor binding peptides and uses thereof” (priority 2003, published 2007).
# Tests used:
# Assay type in all cases: binding
# Settings in all cases: Table IV cross-reactivity; phage clones
# [1] = molecular target: T1, Hu DR4 IgG (SEQ ID NO: 108) (Homo sapiens, UniProt O00220, H141R/R209T); assay: Ic50 cross-reactivity ELISA, Hu DR4 IgG
# T1 construct: Human DR4 IgG fusion polypeptide
# Protocol: (§1) 1. Coat microtiter plate wells with 80 ul of 1 ug/ml Apo-2L receptor DR5 ECD (SEQ ID NO: 105) (in 50 mM sodium carbonate pH 9.6) at 4° C. overnight.
# (§2) 3. Prepare competing receptor solutions (100 ul/sample).
# (§3) 6. Transfer 80 ul the mixture of competing receptor and phage from the non-sticky plate to DR5 ECD coated plate and incubate 20 minutes at room temperature.
# (§4) In the Tables provided herein, “Ic 50” refers to the measure of the concentration of peptide needed to inhibit 50% of Apo-2L (e.g. amino acids 114 to 281 of SEQ ID NO: 1) binding to an Apo-2L receptor molecule (e.g. DR4-IgG (SEQ ID NO: 108) or DR5 ECD (SEQ ID NO: 105) etc.). The peptides are classified such that class 1-class 4 represent a, b, c, and d respectively.
# (§5) Table VIII identifies the sequence identification numbers (SEQ ID NOs.) for the various peptides disclosed herein.
# [2] = molecular target: T2, Hu DR5 IgG (SEQ ID NO: 109) (Homo sapiens, UniProt O14763); assay: Ic50 cross-reactivity ELISA, Hu DR5 IgG
# T2 construct: Human DR5 IgG fusion polypeptide
# Protocol: as §1, §2, §3, §4, §5
# [3] = test system: Cyno DR5 IgG (SEQ ID NO: 112); assay: Ic50 cross-reactivity ELISA, Cyno DR5 IgG
# Protocol: as §1, §2, §3
# Peptides of the invention and their Ic 50 values (e.g. determinations of Ic 50 in ELISA based assays using a DR5 ECD (SEQ ID NO: 105) competitor) are identified in Table III below. In the Tables provided herein, “Ic 50” refers to the measure of the concentration of peptide needed to inhibit 50% of Apo-2L (e.g. amino acids 114 to 281 of SEQ ID NO: 1) binding to an Apo-2L receptor molecule (e.g. DR4-IgG (SEQ ID NO: 108) or DR5 ECD (SEQ ID NO: 105) etc.). The peptides are classified such that class 1-class 4 represent a, b, c, and d respectively.
# Table IV below provides certain properties of selected peptides, for example Ic50 cross-reactivity data with DR4 and DR5 polypeptides. Table VIII identifies the sequence identification numbers (SEQ ID NOs.) for the various peptides disclosed herein.
# Using these methods, the Ic 50 values for various phage clones expressing peptide sequences of interest were generated and are provided in the Tables below. […]
# [4] = molecular target: T3, Hu TNFR IgG (SEQ ID NO: 110) (Homo sapiens, UniProt P19438); assay: Ic50 cross-reactivity ELISA, Hu TNFR IgG
# T3 construct: Human TNFR1 IgG fusion polypeptide
# Protocol: as §1, §2, §3, §4, §5
# [5] = test system: Cyno DR4 IgG (SEQ ID NO: 111); assay: Ic50 cross-reactivity ELISA, Cyno DR4 IgG
# Protocol: as §1, §2, §3, §4, §5
# T2 sequence (O14763 with tags, fused parts or gaps): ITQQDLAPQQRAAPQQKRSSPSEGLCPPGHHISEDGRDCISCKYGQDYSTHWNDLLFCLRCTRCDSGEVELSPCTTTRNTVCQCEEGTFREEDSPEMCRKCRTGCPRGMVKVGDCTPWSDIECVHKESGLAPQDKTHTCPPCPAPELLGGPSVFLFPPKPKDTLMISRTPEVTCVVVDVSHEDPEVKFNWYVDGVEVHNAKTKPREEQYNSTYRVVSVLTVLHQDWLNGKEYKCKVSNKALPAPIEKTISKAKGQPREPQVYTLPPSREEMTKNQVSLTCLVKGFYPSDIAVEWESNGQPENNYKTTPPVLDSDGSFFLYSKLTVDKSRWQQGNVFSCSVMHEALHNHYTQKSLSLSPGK
# Sequence of Cyno DR4 IgG (SEQ ID NO: 111) (as listed by the source): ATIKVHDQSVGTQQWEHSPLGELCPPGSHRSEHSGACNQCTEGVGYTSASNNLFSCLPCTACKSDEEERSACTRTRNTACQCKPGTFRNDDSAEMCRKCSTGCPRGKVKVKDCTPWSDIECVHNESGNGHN
# T1 sequence (O00220 with tags, fused parts or gaps H141R/R209T): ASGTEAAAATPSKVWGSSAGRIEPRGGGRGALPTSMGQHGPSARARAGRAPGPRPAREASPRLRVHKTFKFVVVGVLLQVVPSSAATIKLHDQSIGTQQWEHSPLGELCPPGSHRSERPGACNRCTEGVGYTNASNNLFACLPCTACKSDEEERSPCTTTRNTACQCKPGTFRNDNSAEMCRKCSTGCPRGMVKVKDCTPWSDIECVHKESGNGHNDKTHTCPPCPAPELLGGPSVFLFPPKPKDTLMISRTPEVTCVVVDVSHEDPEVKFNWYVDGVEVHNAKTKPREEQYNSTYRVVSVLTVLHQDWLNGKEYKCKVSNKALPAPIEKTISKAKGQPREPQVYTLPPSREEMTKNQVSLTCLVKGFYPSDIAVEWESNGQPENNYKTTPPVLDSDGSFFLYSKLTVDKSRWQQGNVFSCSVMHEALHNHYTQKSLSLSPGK
# T3 sequence (P19438 with tags, fused parts or gaps): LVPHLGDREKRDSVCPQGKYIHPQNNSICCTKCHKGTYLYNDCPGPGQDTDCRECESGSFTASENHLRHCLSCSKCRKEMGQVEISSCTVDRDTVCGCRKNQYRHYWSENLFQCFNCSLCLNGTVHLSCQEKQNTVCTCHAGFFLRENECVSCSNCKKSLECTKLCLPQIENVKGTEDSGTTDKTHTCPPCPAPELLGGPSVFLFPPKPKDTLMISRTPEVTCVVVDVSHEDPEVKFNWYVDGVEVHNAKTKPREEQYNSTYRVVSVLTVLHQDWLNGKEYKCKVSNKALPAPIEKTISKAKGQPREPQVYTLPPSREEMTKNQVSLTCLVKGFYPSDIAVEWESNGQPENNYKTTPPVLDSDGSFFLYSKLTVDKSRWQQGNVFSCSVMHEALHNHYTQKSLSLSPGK
substance,measurement,setting,value
"Hd5-11: phage-derived DR5 binding peptide, class C1, SEQ ID NO: 15, first generation (G1) lead (QEVCMTSCDKLMKCNWMAAM)",IC50,[1],1000 nM
same,IC50,[2],8 nM
same,IC50,[3],10000 nM
same,IC50,[4],1000 nM
same,IC50,[5],1000 nM
